Experimental data: patent US20130251711A1

Legend:
[1] = molecular target: KIR on patient NK cells (KIR2D receptors; KIR2DL1 and KIR2DL2/3); test: receptor occupancy on patient NK cells by flow cytometry after a single i.v. dose of 0.0003 mg/kg (AML dose-escalation trial)
[2] = molecular target: KIR on patient NK cells (KIR2D receptors; KIR2DL1 and KIR2DL2/3); test: receptor occupancy on patient NK cells by flow cytometry after a single i.v. dose of 0.003 mg/kg (AML dose-escalation trial)

Question: How did the KIR occupancy [1] turn out when anti-KIR antibody 1-7F9 was run?
Answer: Its KIR occupancy is 50%.

Question: And the KIR occupancy [2]?
Answer: The KIR occupancy was 90%.
